How the values were obtained:
PdxS = biological target: T1, PdxS (Actinobacillus pleuropneumoniae, UniProt B3GXB6); assay: PLP formation assay, OD414; assay type: biochemical; settings: 50 mM Tris-HCl pH 8.0, 37°C, PdxS alone, 10 mM ammonium sulfate in place of glutamine
T1 construct: full-length ORF (888 bp), pET22b(+) NdeI/XhoI, His6-tag kept, E. coli BL21(DE3); PdxS alone, without PdxT

O=CC(O)COP(=O)(O)O = assay: purified protein; settings: 50 mM Tris-HCl pH 8.0, 37°C, PdxS + PdxT mixture, co-substrates ribose 5-phosphate and glutamine, glyceraldehyde 3-phosphate 0–1.0 mM (DL form per methods)
NC(=O)CC[C@H](N)C(=O)O = assay: purified protein; settings: 50 mM Tris-Cl pH 8.0, 37°C, PdxS + PdxT mixture, glutamine 0–15 mM

T1 sequence (B3GXB6 whole entry): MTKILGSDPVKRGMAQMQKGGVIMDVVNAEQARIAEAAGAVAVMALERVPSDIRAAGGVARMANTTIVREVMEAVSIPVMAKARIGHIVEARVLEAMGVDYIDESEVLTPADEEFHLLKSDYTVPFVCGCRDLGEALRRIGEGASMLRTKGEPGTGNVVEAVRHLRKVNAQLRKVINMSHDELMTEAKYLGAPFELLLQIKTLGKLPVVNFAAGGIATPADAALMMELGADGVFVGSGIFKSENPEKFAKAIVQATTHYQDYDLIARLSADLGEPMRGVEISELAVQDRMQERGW

## O=CC(O)COP(=O)(O)O (racemic) [glyceraldehyde 3-phosphate]
PdxS; 0.5 mM ribose 5-phosphate
  PLP formation assay, OD414: the individual PdxS could produce PLP in the addition of ammonium

## O=P(O)(O)OC[C@H]1OC(O)[C@H](O)[C@@H]1O (stereo partly drawn) [ribose 5-phosphate]
PdxS; 1 mM DL-glyceraldehyde 3-phosphate
  PLP formation assay, OD414: the individual PdxS could produce PLP in the addition of ammonium

## PLP synthase PdxS and PdxT (PLP synthesis activity) (Actinobacillus pleuropneumoniae serovar 7 str. AP76)
O=CC(O)COP(=O)(O)O
  Km: 175.7 ± 23.0 µM
  kcat: 0.023 ± 0.0011 min⁻¹

## PdxS and PdxT (PLP synthase; glutaminase activity of PdxT with PdxS) (Actinobacillus pleuropneumoniae serovar 7 str. AP76)
NC(=O)CC[C@H](N)C(=O)O
  Km: 1.72 ± 0.14 mM
  kcat: 6.12 ± 0.14 min⁻¹

— paper PMC5407770, “Pyridoxal phosphate synthases PdxS/PdxT are required for Actinobacillus pleuropneumoniae viability, stress tolerance and virulence” (PLoS ONE, 2017)
